Assay results: a protein production outcome set (Wang et al. 2014)

Experiment: label from the status in PepcDB records

Sequence | protein production
MDHPFNQMRLKLTTELLLDLGSLKPEHIITPRIATDEELSLIHSYDYIQAIRRASHGILNLQEAKKYGLDGDDTLQFRRMHQHSARIVGGALNLADAIMDKSVKNGCHLGGGLHHSLPGRANGFCIYNDVAITIAYLIKHYNQRVLCIDTDAHHGDGTQWSFYTEDQALIYSIHETGKFLFPGSGHYTERGNEQGFGYTVNIPLEPYTEDSSYLEVFKQTIEPIIASFKPDIIVSVHGVDVHYLDPLTHMSCTLNTLYQIPYIIKSLADTYTNGKVMMFGGGGYNIWKVVPRAWSHVFLALEHHHHHH | not failed
IEVSYHTPDGVPGVVMTTPKLDDGTPFPTLYYLTEPRLTAEASRLEVAHVMKWMTDRLHSDEELRQDYERAHEYFLAKRNALEDLGTDFSGGGMPDRVKCLHVLIAYALAEGPDHFRLGTEAVALA | failed
MGRKMGISGKLYSFLYLRGFKVWVSYRTQTVLTVLGWVLPVFTYYFTGTALGNRLVNEVGVSNYTAFFTIGLAFQGYVSSVISTISQRLRNEQLYGTIEYYVISRTGTFGFLLYSALWGLTLNTINAIIILAVGFALNIHYNVNIVSAIVIIVLLILSTLGIGMIAGAVTMVTKQGNPISFFFNTFTNLLGGTVFPVTVLPLYVRYISYGIPLTWALEGLREAFLNGAPITDIAPFIIILTIFDIVLLPLGVFSYNHAFKKAREKGTLGEY | failed
MRARHASCMHPPSLSADPVALMTDTPASSETSASGWRRALPVIVSLAILAMALHALSSQFTDHGYRQIRHAFRALGAGQITLTLLLGLSSYVCLVGFDWVGLKRTGKQLHPARVGITAFMAHAVGQTLGFAALTGGAVRLRGYGSVGLTLAEIGQVVLMSTLGFIFGAWVLLGLALMLEPEAAARALPITAQAIRIAGIALLVGYVAMLMLVGRQGREFGIRSHRFWLPDRTTVLGVTALSVVELGLAAAAFYVLLPPDSGTGYFGFIGIWLVAVVAGLISTVPAGLGVFEWSLLELLPHVTPAAVLAAALVYRVTYYIVPLLISVAMAAASGLRVPVRVGASTARSVWKALRPWLPQILALAVFAVGAALVIDGTLPTPAARQEVAPLPLIETSHLLVSLGGMMLLLIGQGLQRRSHSAWMLALGVCLLVPPFALLRGSHISVSLSAALAAVALWAARREFYRQGALLDEAWSWRWLSNLGLVLVATFWLLFFVYSHVEYSNDLWWQFATSANAPRALRAALILCVGVIVFGMARLLRGGRRPMPAADAPTLRTLAPILATSTDTQACLALTGDKAFLLDEQSSGFVMMQRYGGSLISMGDPVGSPEVARALIWRFREEADQMGLRTVFYQVGEKHWQTYLDMGLTLVKLGEEAIVPLEGFTLEGRDRADLRQAWNRGKRGGLSFRMLQPEQVDEVLPRLAEVSDQWMEEKSGEEKGFSLGSFDADYLRRFPVAVAEAEGQIVAFANVWWAPAGGELSVDLMRHSAEAPKGTMDFLFIELFLWGQANGYTRFSLGMAPLSGLAEHRLAGRWNRFASLVARHGERFYGFSGLRRFKSKFDPTWRPRYLVAPGGMHLPAALLDVTRLISADPRRQE | failed
IGPSSSHTMGPMTAANVFRDHVDQLVSQTPDDLNYRVYCVLKGSLAFTGRGHATDRAVALGLHGHSPVSLAGEDVNALTAKLWATDTLQLTSGREIGFNPEDDIVFDKSDPLPQHPNGMIFYLLDEEGKKILSETFFSIGGGFICTLAEINQ | not failed
MNKDLKAIKWFITTQILKDPFNPAYATFKVTSRCNLRCTFCSPSYYSGELGEGSTERVKKIIDNLRDSSIVVLSFEGGEPTYRPDILDLLEYAHDGSFYIMLTTNGYRLKDEDFLTKLADKIDFLHYSIDEYHWNVKELENLCRFRKYGLKVNVQTVVTRYNLYKLEEKVRKVAECGYKILAMPAVDYPNSKVKLAPDPYEFYKVLYDLKRKYGSTLNNSWGFINAIIGKVPKRVVSYAITIYPNGDLPYPDDINGEIVGNVAEEPLNKILQSSKVKELQQKMLENQAKFEYLHLQTASFNNIRDLASYVSEMLRWRFTGRA | failed
MGKRSSNDLPPVEASMARHIIHFTGPINSSTCGNLITTCSRALQQGAELLQLNIATMGGECSYGFTLYNFLRALPVEVHTHNLGTVESMGNILFLAGERRTACSFSKFLFHPFHWTLHGSVDHSRMSEYAMSLDYDLRLYAQIVAERTKGAAEVLDVPRYLMAYPRILAPREALENGMIHEIDEMPIASDATQWSVHA | failed
ANIYTFDFDEIESQEDFYRDFSQTFGLAKDKVRDLDSLWDVLMNDVLPLPLEIEFVHLGEKTRRRFGALILLFDEAEEELEGHLRFNVRH | not failed
